The values below come from patent US20050100970A1 (Affibody, published 2005).

Where a chain is given by its changes, count along the chain named.

The target in experiment [1] is T1, human serum albumin (human, UniProt P02768 25-609).
T1 construct: Amine-coupled to a CM5 chip, coupled to Sepharose, or loaded in solution onto the ABD columns; also called HSA
The experiment in a line: BIAcore 2000, HSA immobilised on CM5 chip, 40-220 nM ABDwt.

For experiment [2], the target named is T1, human serum albumin. The experiment in a line: Biacore 2000, HSA immobilised on a CM5 chip, analyte at 200 nM, 20 µl/min. A general note: Surface plasmon resonance follows binding to a sensor surface in real time, without labels.
For experiment [3], the target named is T1, human serum albumin. The experiment in a line: BIAcore 2000, HSA immobilised on CM5 chip, 200-600 nM ABDmut.

B1: wild type Albumin Binding Protein (ABD) (other)
chain: MKAIFVLNAQHDEAVDANSLAEAKVLANRELDKYGVSDYYKNLINNAKTVEGVKALIDEILAALP
notes: Expressed in E. coli from pTrpABDT1T2; also called ABDwt; unmutated protein
In general, koff refers to the first-order rate constant of dissociation. A high value points to a short-lived complex. Broadly, the kon is the rate constant with which the complex forms. A low value points to slow association. As to B1, in the experiment with human serum albumin [1], the Ka amounted to 6.9e+07 M⁻¹, the koff came to 0.0013 s⁻¹ and the kon is 90000 M⁻¹ s⁻¹.

B2: ABDmut22-25-26 (designed binder)
chain: B1 chain with E22A, V25A, L26A, N28L, N42D, N45D, N46K
notes: also called 22-25-26 A; triple mutant of ABDmut
As for B2, the binding result in the experiment with human serum albumin [2] is “binds”.

B3: ABDmut54-57-58 (designed binder)
chain: B1 chain with N28L, N42D, N45D, N46K, K54A, I57A, D58A
notes: also called 54-57-58 A; ABDmutS4-57-58
As for B3, the binding result in the experiment with human serum albumin [2] is listed as “binds”.

B4: ABDmut (Asn28Leu, Asn42Asp, Asn45Asp, Asn46Lys variant of ABD) (designed binder)
chain: B1 chain with N28L, N42D, N45D, N46K
notes: Expressed in E. coli from pTrpABDmutT1T2; also called ABDstab; mutated ABD
With B4, in the experiment with human serum albumin [3], the Ka was 1.5e+07 M⁻¹, the off-rate (koff) came to 0.0012 s⁻¹ and the on-rate (kon) was determined as 18000 M⁻¹ s⁻¹.
